Publication PMC12533375, “Critical Role of IL1R2‐ENO1 Interaction in Inhibiting Glycolysis‐Mediated Pyroptosis for Protection Against Lethal Sepsis” (Advanced Science, 2025)

Biological target: T1, recombinant mouse ENO1 (rmENO1) (mouse, UniProt P17182 1-434)
T1 construct: recombinant mouse ENO1, Creative BioMart Cat. No. Eno1-244 M; The vendor's data sheet should be consulted; source: bought: Creative BioMart (Cat. No. Eno1-244 M)
Assay: SPR; OpenSPR (Nicoya); rmIL1R2 immobilised on a carboxyl sensor (EDC/NHS), rmENO1 as analyte at 12.5 to 50 nM; 40 µL/min, 20 °C; 50 mM Tris-HCl, 150 mM NaCl, 3 mM EDTA, 0.05% P20, 0.5 mM CaCl2, pH 7.4; global 1:1 fit
Conditions: both partners purified

T1 sequence (P17182 whole entry): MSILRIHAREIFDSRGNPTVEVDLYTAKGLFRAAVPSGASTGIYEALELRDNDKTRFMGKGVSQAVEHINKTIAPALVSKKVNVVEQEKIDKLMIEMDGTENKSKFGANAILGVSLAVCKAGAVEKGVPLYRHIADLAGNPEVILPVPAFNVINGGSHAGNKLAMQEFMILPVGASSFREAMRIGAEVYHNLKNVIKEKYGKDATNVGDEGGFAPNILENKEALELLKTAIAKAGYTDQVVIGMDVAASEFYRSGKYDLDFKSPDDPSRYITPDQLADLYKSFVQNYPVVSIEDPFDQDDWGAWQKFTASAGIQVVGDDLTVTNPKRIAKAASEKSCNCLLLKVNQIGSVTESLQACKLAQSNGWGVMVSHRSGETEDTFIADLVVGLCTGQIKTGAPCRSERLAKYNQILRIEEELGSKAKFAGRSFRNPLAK

B1: recombinant mouse IL1R2 (rmIL1R2) (receptor, UniProt P27931 14-355, looked up)
chain: FTTPTVVHTGKVSESPITSEKPTVHGDNCQFRGREFKSELRLEGEPVVLRCPLAPHSDISSSSHSFLTWSKLDSSQLIPRDEPRMWVKGNILWILPAVQQDSGTYICTFRNASHCEQMSVELKVFKNTEASLPHVSYLQISALSTTGLLVCPDLKEFISSNADGKIQWYKGAILLDKGNKEFLSAGDPTRLLISNTSMDDAGYYRCVMTFTYNGQEYNITRNIELRVKGTTTEPIPVIISPLETIPASLGSRLIVPCKVFLGTGTSSNTIVWWLANSTFISAAYPRGRVTEGLHHQYSENDENYVEVSLIFDPVTREDLHTDFKCVASNPRSSQSLHTTVKE
notes: recombinant mouse IL1R2, R&D Systems Cat. No. 563-MR-100; The vendor's data sheet should be consulted; source: bought: R&D Systems (Cat. No. 563-MR-100)
- Kd: 1.99 nM
